Read-outs that look alike come from different tables or passages of the source. No end group written: not given here.
Experiments:
[1] = target: T1, mutant TDP-43 domain IV (TDP-43 258-414 AMM321GGG) (human, UniProt Q13148 258-414); assay: direct ELISA, coated antigen
T1 construct: Recombinant
T1 chain: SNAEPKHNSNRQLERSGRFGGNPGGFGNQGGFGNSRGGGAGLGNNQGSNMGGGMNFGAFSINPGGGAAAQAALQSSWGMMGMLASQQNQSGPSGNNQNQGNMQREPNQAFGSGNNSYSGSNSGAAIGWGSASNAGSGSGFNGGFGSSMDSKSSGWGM

[2] = target: T2, 6xHis-SUMO-TDP-43 (220-414) (human, UniProt Q13148 220-414); assay: capture ELISA, antigen held by anti-6xHis antibody
T2 construct: Captured on the plate by an anti-6xHis antibody; also called 6xHis/SUMO tagged truncated TDP-43; not shown: N-terminal 6xHis and SUMO tags from a modified pET19-b vector
How it was run: (§1)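 Anti-6×His antibody captured 6×His-SUMO-TDP-43 (1.7 μM, 1 hr RT) in PBS with 1% BSA, 300 mM arginine and 0.1% PEG 5000, pH 7.5, avoiding direct adsorption. Three-fold antibody titrations were incubated 1 hr RT and detected with HRP anti-human IgG Fc colorimetrically. EC₅₀ from a four-parameter logistic fit.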

[3] = target: T3, synthetic biotinylated peptide TDP-43 316-343 (human, biotinylated (site not stated)); assay: direct ELISA, biotinylated peptide on streptavidin plate
T3 construct: On streptavidin-coated plates
T3 peptide: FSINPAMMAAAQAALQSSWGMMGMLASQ

[4] = target: T4, synthetic biotinylated peptide TDP-43 316-353 (human, biotinylated (site not stated)); assay: as above
T4 construct: On streptavidin-coated plates
T4 peptide: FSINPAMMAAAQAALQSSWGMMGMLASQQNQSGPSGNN

[5] = target: T5, synthetic biotinylated peptide TDP-43 316-333 (human, also: biotinylated (site not given here)); assay: as above
T5 construct: On streptavidin-coated plates
T5 peptide: FSINPAMMAAAQAALQSS

[6] = target: T6, TDP-43 C terminal fragment 258-319 (human, UniProt Q13148 258-319); assay: direct ELISA, coated fragments
T6 construct: Recombinant fragment

[7] = target: T7, TDP-43 C terminal fragment 340-414 (human, UniProt Q13148 340-414); assay: direct ELISA, coated fragments
T7 construct: Recombinant fragment

[8] = target: T8, His-huTDP-43 domain I (amino acid residues 2-106) (human); assay: direct ELISA, TDP-43 fragments coated at 6.6 ug/ml, OD 450
T8 construct: Amino terminal His-tagged fragment, E. coli; also called N-terminal domain
T8 chain: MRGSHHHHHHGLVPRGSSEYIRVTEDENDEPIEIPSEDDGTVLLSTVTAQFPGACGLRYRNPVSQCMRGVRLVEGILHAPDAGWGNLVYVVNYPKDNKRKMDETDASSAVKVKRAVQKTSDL
Procedure: (§2) Non-specific binding sites were blocked for 1 hr. at room temperature with PBST containing 2% BSA (Sigma, Buchs, Switzerland). Antibodies were incubated 1 hr. at room temperature. Binding was determined using either a donkey anti-human IgGγ-specific antibody conjugated with HRP (Jackson ImmunoResearch, USA) or a goat-anti mouse IgG (H+L)-specific secondary antibody conjugated with HRP (Jackson ImmunoResearch, USA)., followed by measurement of HRP activity in a standard colorimetric assay.

BSA = target: T9, BSA (bovine, UniProt P02769); assay: direct ELISA, BSA coated at 5 ug/ml as control, OD 450
T9 construct: control coating in the EC50 ELISA; also called bovine serum albumin (Sigma, Buchs, Switzerland)
T9 sequence (P02769 25-607 limits assumed): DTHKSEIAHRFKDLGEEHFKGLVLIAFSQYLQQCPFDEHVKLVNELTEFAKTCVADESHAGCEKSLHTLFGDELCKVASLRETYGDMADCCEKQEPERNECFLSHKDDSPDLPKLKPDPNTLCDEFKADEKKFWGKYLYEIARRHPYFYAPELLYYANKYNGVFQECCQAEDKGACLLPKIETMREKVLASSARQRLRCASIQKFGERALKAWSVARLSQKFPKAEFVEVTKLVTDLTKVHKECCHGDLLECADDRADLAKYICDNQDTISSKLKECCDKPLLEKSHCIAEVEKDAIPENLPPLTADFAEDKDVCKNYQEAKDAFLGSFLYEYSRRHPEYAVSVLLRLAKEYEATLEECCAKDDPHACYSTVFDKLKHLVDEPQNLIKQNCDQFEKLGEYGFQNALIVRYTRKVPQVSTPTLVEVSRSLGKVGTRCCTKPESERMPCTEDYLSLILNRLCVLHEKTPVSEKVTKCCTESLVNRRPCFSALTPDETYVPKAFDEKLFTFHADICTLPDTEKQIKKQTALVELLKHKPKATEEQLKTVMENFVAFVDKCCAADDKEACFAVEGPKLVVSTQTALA
Procedure: To determine the half maximal effective concentration (EC₅₀) of the human-derived TDP-43-specific antibodies for human TDP-43 and to evaluate target-specificity, 96 well microplates (Corning) were coated with recombinant full length TDP-43 (Biogen Idec, USA), Escherichia coli extract and BSA (Sigma, Buchs, Switzerland), diluted to a concentration of 5 μg/ml in carbonate ELISA coating buffer (pH 9.6) overnight at 4° C. […] Non-specific binding sites were blocked for 1 hr. at room temperature with PBS containing 2% BSA (Sigma, Buchs, Switzerland). Human TDP-43-specific antibodies were diluted to the indicated concentrations and incubated 1 hr. at room temperature. Binding was determined using a donkey anti-human IgGγ-specific secondary antibody conjugated with HRP (Jackson ImmunoResearch, USA), followed by measurement of HRP activity in a standard colorimetric assay. EC₅₀ values were estimated by a non-linear regression using GraphPad Prism software (San Diego, USA).
The half maximal effective concentration (EC₅₀) of the human-derived TDP-43-specific antibodies for human TDP-43 and their target target-specificity was determined substantially as described in Example 2 above. […]

[9] = target: T10, recombinant full-length His-tagged human TDP-43 (2-414) (human, UniProt Q13148 2-414); assay: direct ELISA, coated antigen
T10 construct: Amino terminal His tag, made in E. coli, purified in 8 M urea; also called full length TDP-43; full-length TDP-43
How it was run: (§3)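 Plates coated overnight at 4° C with full-length TDP-43 at 5 μg/ml in carbonate buffer pH 9.6, with E. coli extract and BSA coated alongside. After blocking with 2% BSA, antibodies incubated 1 hr at room temperature and detected by HRP anti-human IgGγ colorimetric read-out. EC₅₀ from non-linear regression.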

[10] = target: T8, His-huTDP-43 domain I (amino acid …); assay: direct ELISA, His-tagged TDP-43 fragments coated at 6.6 ug/ml, OD 450
Procedure: as §2

[11] = target: T11, His-huTDP-43 domain III (amino acid residues 183-273) (human); assay: as above
T11 construct: Amino terminal His-tagged fragment, E. coli
T11 chain: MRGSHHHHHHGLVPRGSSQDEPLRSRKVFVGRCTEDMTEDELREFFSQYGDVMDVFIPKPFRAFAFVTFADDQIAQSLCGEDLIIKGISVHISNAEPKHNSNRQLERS
Procedure: as §2

[12] = target: T12, His-huTDP-43 domain IV (amino acid residues 258-414) (human, UniProt Q13148 258-414); assay: as above
T12 construct: Amino terminal His-tagged fragment, E. coli, solubilized in 8 M urea; also called Glycine-rich domain
Procedure: as §2

[13] = target: T10, recombinant full-length His-tagged …; assay: direct ELISA, coated antigen; remark: listed apart in the source
How it was run: as §3

[14] = target: T13, His-huTDP-43 domain II (amino acid residues 99-204) (human); assay: direct ELISA, coated antigen; direct ELISA, domain coated at 6.6 ug/ml (Example 1, FIG. 2F)
T13 construct: Amino terminal His-tagged fragment, E. coli
T13 chain: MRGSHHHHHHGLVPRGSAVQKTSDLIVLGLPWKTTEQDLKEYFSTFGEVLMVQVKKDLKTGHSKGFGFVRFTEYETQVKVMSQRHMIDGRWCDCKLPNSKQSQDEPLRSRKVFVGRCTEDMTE
Procedure: as §2
(§4) The polypeptides were coated onto ELISA plates at equal coating concentration of 6.6 μg/ml (recombinant TDP-43 and TDP-43 fragments) or 3.3 μg/ml (synthetic peptides). Binding of the human-derived antibodies was determined by direct ELISA.

[15] = target: T8, His-huTDP-43 domain I (amino acid …); assay: direct ELISA, coated antigen; direct ELISA, domain coated at 6.6 ug/ml (Example 7, FIG. 5)
Procedure: as §2
(§5) Binding of the human-derived antibodies was determined by direct ELISA.

[16] = target: T14, 6xHis-SUMO-TDP-43 (1-414), properly folded full length (human, UniProt Q13148 1-414); assay: capture ELISA, antigen held by anti-6xHis antibody
T14 construct: Purified with KSCN and arginine, monomeric; captured on the plate by an anti-6xHis antibody; also called folded full-length TDP-43; 6xHis/SUMO tagged full length TDP-43; not shown: N-terminal 6xHis and SUMO tags from a modified pET19-b vector
How it was run: as §1

[17] = target: T8, His-huTDP-43 domain I (amino acid …); assay: direct ELISA, coated antigen; direct ELISA, domain coated at 6.6 ug/ml (Example 7, FIG. 5M)
Procedure: as §2, §5

[18] = target: T11, His-huTDP-43 domain III (amino acid …); assay: direct ELISA, TDP-43 fragments coated at 6.6 ug/ml, OD 450
Procedure: as §2

[19] = target: T13, His-huTDP-43 domain II (amino acid …); assay: as above
Procedure: as §2

[20] = target: T12, His-huTDP-43 domain IV (amino acid …); assay: as above
Procedure: as §2

[21] = target: T13, His-huTDP-43 domain II (amino acid …); assay: direct ELISA, His-tagged TDP-43 fragments coated at 6.6 ug/ml, OD 450
Procedure: as §2

[22] = target: T8, His-huTDP-43 domain I (amino acid …); assay: direct ELISA, coated antigen; direct ELISA, domain coated at 6.6 ug/ml (Example 1, FIG. 2H)
Procedure: as §2, §4

B1: NI-205.41D1 (antibody, human IgG1, V domains shown)
VH: EVQLVESGGGLVQPGGSLRLSCAASGFTFSTYYMSWVRQAPGKGLEWVANIKQDGSEKYYVDSVKGRFTISRDNARNSLYLQMHSLRAEDTAVYYCASPPGWWGQGTLVTVSS
VL: DIVMTQTPLSLSVTPGQPASISCKSSQSLLHSDGKTYLYWYLQKPGQPPQLLIYEVSNRFSGVPDRFSGSGSGTDFTLKISRVEAEDVGVYYCMQSIQLPVTFGGGTKVEIK
notes: Human-derived; also called NI-41D1
binding result [1]: no binding | EC50 [2]: 0.1 nM | binding result [3]: binds | binding result [4]: binds | binding result [5]: no binding | binding result [6]: no binding | binding result [7]: no binding | binding result [8]: no binding | binding result (BSA): no binding (tested: about 4x10^5 pM)

B2: NI-205.113C4 (antibody, human IgG1, V domains shown)
VH: QVQLVQSGAEVKKPGASVKVSCKASGYTFTNYYMHWVRQAPGQGLEWMGIINPSGGRTSYAQKFQGRASMTRDTSTSTVYMEVISLRSEDTAVYYCARQRPSGYSGYGPSESYGNPTDDAFDVWGQGTTVTVSS
VL: SYVLTQPPSVSVAPGQTARITCGGNNIGSRGVHWYQQRPGQAPVLVVYDDSDRPSGIPERFSGSNSGDTATLTISRVEVGDEADYYCQVWDNSSDHLVVFGGGTKLTVL
notes: Human-derived
EC50 [9]: 13.2 nM | binding result [2]: no binding | binding result [10]: no binding | binding result [11]: no binding | binding result [12]: no binding | EC50 [13]: 13.2 nM | binding result [14]: binds

B3: NI-205.29E11 (antibody, human IgG1, V domains shown)
VH: QVQLVQSGAEVKKPGASVKVSCKASGYIFTDYFIHWIRQAPGQGLEWMGWIKPKSGGTDYAEKFQGRVTLTRDTSITTVYMELSRLNSDDTAVYYCARLKYSVPDSDYWGQGTLVTVSS
VL: DVVMTQSPLSLPVTLGQSASISCRSSQGLVHSDGNTYLNWFHQRPGQSPRRLIYKVFNRDSGVSDRFSGSGSGSDFTLMISRVEAEDVGIYYCMQGTLWPLTFGQGTKVEIK
notes: Human-derived
binding result [15]: binds | EC50 [2]: > 97 nM | EC50 [16]: > 100 nM | EC50 [13]: 10.4 nM

B4: NI-205.8C10 (antibody, human IgG1, V domains shown)
VH: EVQLVESGGGLVNPGGSLRLSCTASGFSFSTYSMNWVRQAPGKGLEWVSLITSSGSYIYYADSVKGRFTISRDDAKNSLYLQMNSLRAEDTAVYYCANMLAAAGSHYFHYWGQGTLVTVSS
VL: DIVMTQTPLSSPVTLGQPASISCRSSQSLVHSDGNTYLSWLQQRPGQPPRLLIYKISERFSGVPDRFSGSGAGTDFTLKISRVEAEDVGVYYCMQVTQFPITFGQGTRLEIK
notes: Human-derived
binding result [17]: binds | EC50 [13]: 15.6 nM | binding result [18]: no binding | binding result [19]: no binding | binding result [20]: no binding

B5: NI-205.87E7 (antibody, human IgG1, V domains shown)
VH: EVQLLESGGGLVQPGGSLRLSCAASGFTFSSYAMSWVRQAPGKGLEWVSAISGGGDRTYSADSVKGRFTISRDNSKNTLYLQINSLRVEDTAVYYCAQGGGGEMTAVTMDGTYYGMDVWGQGTTVTVSS
VL: QSALTQPRSVSGSPGQSITISCTGTSSNVGTYKFVSWYQQHPGKAPKLMIYDVTKRPSGVPDRFSGSKSGNTASLTISGLQAEDEADYYCCSYAGSYTYVFGSGTKVTVL
notes: Human-derived
EC50 [9]: 17.2 nM | binding result [2]: no binding | binding result [11]: no binding | binding result [21]: no binding | binding result [12]: no binding | binding result [22]: binds | EC50 [13]: 17.2 nM
